The source of these data is patent US11597752B2, “Peptides and combination of peptides and scaffolds thereof for use in immunotherapy against colorectal carcinoma (CRC) and other cancers” (priority 2015, dated 2023).

This assay addresses HLA-A*02:01 (Homo sapiens, UniProt P04439, D140Y/D185E/D98H/E176V/E277Q/G131W/G231S/I119V/I121R/I166T/I218V/L300P/L318F/N151K/N90K/P208A/P217A/Q86G/Q94H/R138H/R169H/T345S). Put plainly: MHC binding assay (UV-ligand exchange, beta2m ELISA, peptide exchange yield). To be noted: binding to HLA-A*02:01, β2m ELISA. An excerpt:
Candidate peptides for T cell based therapies according to the present invention were further tested for their MHC binding capacity (affinity). The individual peptide-MHC complexes were produced by UV-ligand exchange, where a UV-sensitive peptide is cleaved upon UV-irradiation, and exchanged with the peptide of interest as analyzed. Only peptide candidates that can effectively bind and stabilize the peptide-receptive MHC molecules prevent dissociation of the MHC complexes. To determine the yield of the exchange reaction, an ELISA was performed based on the detection of the light chain (β2m) of stabilized MHC complexes. The assay was performed as generally described in Rodenko et al. (Rodenko et al., 2006).
96 well MAXISorp plates (NUNC) were coated over night with 2 ug/ml streptavidin in PBS at room temperature, washed 4× and blocked for 1 h at 37° C. in 2% BSA containing blocking buffer. Refolded HLA-A*02:01/MLA-001 monomers served as standards, covering the range of 15-500 ng/ml. Peptide-MHC monomers of the UV-exchange reaction were diluted 100 fold in blocking buffer. Samples were incubated for 1 h at 37° C., washed four times, incubated with 2 ug/ml HRP conjugated anti-β2m for 1 h at 37° C., washed again and detected with TMB solution that is stopped with […]. Absorption was measured at 450 nm. Candidate peptides that show a high exchange yield (preferably higher than 50%, most preferred higher than 75%) are generally preferred for a generation and production of antibodies or fragments thereof, and/or T cell receptors or fragments thereof, as they show sufficient avidity to the MHC molecules and prevent dissociation of the MHC complexes.
Consider “54 (ALLNGEYLLAA; listed as Homo sapiens) [compound 54]”, for which the “Peptide exchange (MHC class I binding score, peptide exchange yield)” value (from here on “Peptide exchange”) is ““+++” (≥50 = +++)”.

As to “87 (LLFDAPDLRL; listed as Homo sapiens) [compound 87]”, the “Peptide exchange” value was ““+++” (≥50 = +++)”.

Turning to “190 (AMAEMVLQV; listed as Homo sapiens) [compound 190]”, the “Peptide exchange” value was ““+++” (≥50 = +++)”.

With “57 (NLLEKENYL; listed as Homo sapiens) [compound 57]”, the “Peptide exchange” value is given as ““+++” (≥50 = +++)”.

“183 (TLQEVVTGV; listed as Homo sapiens) [compound 183]”: the “Peptide exchange” value was ““+++” (≥50 = +++)”.

With “67 (SLNDLEKDVMLL; listed as Homo sapiens) [compound 67]”, the “Peptide exchange” value was ““+++” (≥50 = +++)”.

For the substance “107 (ALLGGGPYML; listed as Homo sapiens) [compound 107]”, the “Peptide exchange” value is reported as ““+++” (≥50 = +++)”.

“113 (ILYDLQQNL; listed as Homo sapiens) [compound 113]”: the “Peptide exchange” value was ““++” (≥20% = ++)”.

Take “23 (FLDANGHFV; listed as Homo sapiens) [compound 23]”: the “Peptide exchange” value is recorded as ““+++” (≥50 = +++)”.

Consider “33 (ALWEKNTHL; listed as Homo sapiens) [compound 33]”, for which the “Peptide exchange” value is ““+++” (≥50 = +++)”.

Consider “74 (YLMGFLHAV; listed as Homo sapiens) [compound 74]”, for which the “Peptide exchange” value is ““+++” (≥50 = +++)”.

For “182 (SLNKWIFTV; listed as Homo sapiens) [compound 182]”, the “Peptide exchange” value was ““++++” (≥75% = ++++)”.

As to “46 (GLDDRYSLV; listed as Homo sapiens) [compound 46]”, the “Peptide exchange” value was ““+++” (≥50 = +++)”.

Consider “56 (VLFTDEGVPKFL; listed as Homo sapiens) [compound 56]”, for which the “Peptide exchange” value is on record as ““++” (≥20% = ++)”.

“125 (KLGDFGLLVEL; listed as Homo sapiens) [compound 125]”: the “Peptide exchange” value is given as ““++++” (≥75% = ++++)”.

“146 (ALSDETWGL; listed as Homo sapiens) [compound 146]”: the “Peptide exchange” value is ““++” (≥20% = ++)”.

For “30 (GLSSAYGGL; listed as Homo sapiens) [compound 30]”, the “Peptide exchange” value is listed as ““+” (≥10% = +)”.

Take “15 (LQLDKEFQL; listed as Homo sapiens) [compound 15]”: the “Peptide exchange” value is given as ““+++” (≥50 = +++)”.

Turning to “102 (KILVSLIEV; listed as Homo sapiens) [compound 102]”, the “Peptide exchange” value was ““+++” (≥50 = +++)”.

Regarding “71 (RLWTEIPTAI; listed as Homo sapiens) [compound 71]”, the “Peptide exchange” value is given as ““+++” (≥50 = +++)”.

As for “172 (LLLDTVTMQV; listed as Homo sapiens) [compound 172]”, the “Peptide exchange” value is recorded as ““+++” (≥50 = +++)”.

Consider “186 (KMSEKILLL; listed as Homo sapiens) [compound 186]”, for which the “Peptide exchange” value is ““+++” (≥50 = +++)”.

On to “83 (LTIEDGIFEV; listed as Homo sapiens) [compound 83]”, for which the “Peptide exchange” value is ““+++” (≥50 = +++)”.

Take “118 (LLADLKTMV; listed as Homo sapiens) [compound 118]”: the “Peptide exchange” value is reported as ““+++” (≥50 = +++)”.

“119 (ILYQTVTGL; listed as Homo sapiens) [compound 119]”: the “Peptide exchange” value is ““++” (≥20% = ++)”.

As for “166 (GLLEARGILGL; listed as Homo sapiens) [compound 166]”, the “Peptide exchange” value is recorded as ““+++” (≥50 = +++)”.

As for “94 (KSMDIVLTV; listed as Homo sapiens) [compound 94]”, the “Peptide exchange” value is reported as ““+++” (≥50 = +++)”.

Consider “40 (ALSNVIHKV; listed as Homo sapiens) [compound 40]”, for which the “Peptide exchange” value was ““++” (≥20% = ++)”.

As to “35 (KLLDLTVRI; listed as Homo sapiens) [compound 35]”, the “Peptide exchange” value is given as ““+++” (≥50 = +++)”.

As to “115 (SLFDVSHML; listed as Homo sapiens) [compound 115]”, the “Peptide exchange” value is listed as ““+++” (≥50 = +++)”.

Consider “185 (VLYTGVVRV; listed as Homo sapiens) [compound 185]”, for which the “Peptide exchange” value is ““+++” (≥50 = +++)”.

For the substance “160 (KLLEFDQLQL; listed as Homo sapiens) [compound 160]”, the “Peptide exchange” value is ““+++” (≥50 = +++)”.

For the substance “45 (ALAELLHGA; listed as Homo sapiens) [compound 45]”, the “Peptide exchange” value is ““+++” (≥50 = +++)”.

Regarding “4 (RLAELTVDEFL; listed as Homo sapiens) [compound 4]”, the “Peptide exchange” value is reported as ““+++” (≥50 = +++)”.

On to “174 (ILLDDNMQIRL; listed as Homo sapiens) [compound 174]”, for which the “Peptide exchange” value is on record as ““++++” (≥75% = ++++)”.

With “165 (RLLDFPEAMVL; listed as Homo sapiens) [compound 165]”, the “Peptide exchange” value is on record as ““++++” (≥75% = ++++)”.

Regarding “173 (KLGDLMVLL; listed as Homo sapiens) [compound 173]”, the “Peptide exchange” value was ““+++” (≥50 = +++)”.

On to “27 (LLADEDSSYL; listed as Homo sapiens) [compound 27]”, for which the “Peptide exchange” value is on record as ““++” (≥20% = ++)”.

Take “69 (GMLNEAEGKAIKL; listed as Homo sapiens) [compound 69]”: the “Peptide exchange” value is ““++” (≥20% = ++)”.

Turning to “52 (ALDSSNSMQTI; listed as Homo sapiens) [compound 52]”, the “Peptide exchange” value was ““++” (≥20% = ++)”.

Consider “19 (RLYTKLLNEA; listed as Homo sapiens) [compound 19]”, for which the “Peptide exchange” value was ““+++” (≥50 = +++)”.

“16 (VLVDQSWVL; listed as Homo sapiens) [compound 16]”: the “Peptide exchange” value is ““+++” (≥50 = +++)”.

As to “60 (VLDEDEPRFL; listed as Homo sapiens) [compound 60]”, the “Peptide exchange” value was ““++” (≥20% = ++)”.

“100 (SLDDFLATA; listed as Homo sapiens) [compound 100]”: the “Peptide exchange” value was ““+++” (≥50 = +++)”.

For the substance “76 (YLIGEKQHYL; listed as Homo sapiens) [compound 76]”, the “Peptide exchange” value was ““+++” (≥50 = +++)”.

Regarding “14 (FLDKPEDVLL; listed as Homo sapiens) [compound 14]”, the “Peptide exchange” value is reported as ““++” (≥20% = ++)”.

Regarding “77 (SLLKRDFGA; listed as Homo sapiens) [compound 77]”, the “Peptide exchange” value was ““++” (≥20% = ++)”.

Consider “93 (SLQELRLLL; listed as Homo sapiens) [compound 93]”, for which the “Peptide exchange” value is reported as ““++++” (≥75% = ++++)”.

Take “120 (VLYEGVDEV; listed as Homo sapiens) [compound 120]”: the “Peptide exchange” value is listed as ““++” (≥20% = ++)”.

“82 (QLYEEPDTKL; listed as Homo sapiens) [compound 82]”: the “Peptide exchange” value is recorded as ““++” (≥20% = ++)”.
